Reference: the supplement of paper PMC12042874
± gives the uncertainty stated by the source.

Test: amyloid nucleation score (Sup35N fusion, yeast selection) (log enrichment); library NNK1; higher = more nucleation; inactive = no reads after selection
In short: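 For the nucleation score, DiMSum gave the log enrichment of output over input reads, centred on the mode score of non-aggregating sequences. Psi-negative yeast expressing Sup35N fused to peptides of 20 random codons were induced with 100 μM copper sulfate for 24 hours and grown 7 days at 30°C on medium lacking adenine and uracil. Input and output plasmid inserts were Illumina-sequenced, and sequences with under 100 input reads were excluded.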

LSYMGGIPGVLHVMPDAFTV and LSYRSSRFGVS are within error of each other in amyloid nucleation score: -0.077 ± 0.7 for the first, 0.3 ± 0.64 for the second.

LTCMLVRRFGNFIDDSYARA and LTCRYLACCSLRSGRQMLVG are within error of each other in amyloid nucleation score: -1.2 ± 0.5 for the first, -0.694 ± 1.2 for the second.

LTEYFSSVVEYDGYPVLSE and LTHVIGIPRQPCEPLVHLYG are within error of each other in amyloid nucleation score: -0.91 ± 1 for the first, -0.745 ± 2.4 for the second.

LTITGSFIHPI and LTLFQYAFDVHETAVLKLEW are within error of each other in amyloid nucleation score: -0.739 ± 0.79 for the first, -0.166 ± 0.4 for the second.

Compared with LTNGAVGVTFAQNVWPFYAN, LTTPSFYLAGCSSS is lower in amyloid nucleation score: 3.67 ± 0.074 for the first, -0.059 ± 0.36 for the second.

Going from LTVKCCDVSWVRFWYCIAGG to LVASSFDYMMLSSVGRGYGL, the amyloid nucleation score falls from 6.618 ± 0.056 to -0.245 ± 0.3.

LVDSPCQRSYTRRPHTHWR and LVFPWIISFCQRMWMLYQRY are within error of each other in amyloid nucleation score: 0.15 ± 0.34 for the first, 0.499 ± 0.35 for the second.

LVFVFWLKVEPPMLSTCMSK and LVFVVMYGSRPSLKWWGITC are within error of each other in amyloid nucleation score: -1.16 ± 2.7 for the first, 0.473 ± 0.79 for the second.

LVILVTIVDFMEDLSW and LVKLIWRISAWHSWFVSR are within error of each other in amyloid nucleation score: 0.74 ± 0.54 for the first, 1.48 ± 0.8 for the second.

Going from LVLANTDSLTLWFLVTYLTC to LVLLQVVIYGHLQCSFYQMH, the amyloid nucleation score rises from -0.42 ± 0.62 to 1.8 ± 0.23.

Going from LVMCVFLSASVYVFPTHLSS to LVNVGGQEIKVMR, the amyloid nucleation score rises from -1.18 ± 1.4 to 0.888 ± 0.2.

LVNYLICWT and LVPSWRVFVQHLGLFRAL are within error of each other in amyloid nucleation score: -0.078 ± 0.82 for the first, 0.333 ± 0.7 for the second.

First: LVQVIVHFGIYIISAKGQGT
Second: LVSCDIVWWTAMFGLLARMF
The amyloid nucleation score of the first is higher: 3.1 ± 0.15 for the first, 0.591 ± 0.37 for the second.

LVSMRMAFCPWLVRKGIPL and LVTNAYTYSSTGIYDYVRPG are within error of each other in amyloid nucleation score: 0.206 ± 1.6 for the first, 0.093 ± 0.81 for the second.

LVVDRGVNGCAFSWDTNDLS and LVVHTVRVQDR are within error of each other in amyloid nucleation score: -0.52 ± 0.71 for the first, -0.043 ± 0.41 for the second.

Going from LVYLA to LWATNFCNTGFVYSLCIFSR, the amyloid nucleation score rises from -0.569 ± 0.87 to 3.89 ± 0.12.

Compared with LWERGKCHEACVVPAKKEGT, LWFGSHLTNCVKYDLKGESV is higher in amyloid nucleation score: 0.039 ± 0.51 for the first, 1.41 ± 0.47 for the second.

LWGRGCMCWVVVARCFWPLR and LWHAYAKSGYPFGSMVGVHA are within error of each other in amyloid nucleation score: -0.153 ± 1.4 for the first, 0.703 ± 0.4 for the second.

First: LWIQMLAWCSRCM
Second: LWLRGLVSFRQSHGRTGKSS
The amyloid nucleation score of the first is higher: 1.65 ± 0.32 for the first, -0.126 ± 0.33 for the second.

Compared with LWRLANWRM, LWSFIGTGLITNMCISREFK is higher in amyloid nucleation score: -0.46 ± 0.27 for the first, 0.743 ± 0.16 for the second.

LYAIYTAFNRVSSYSNMPVM and LYANNMLSGILCNGFSTITS are within error of each other in amyloid nucleation score: -0.599 ± 0.92 for the first, -0.339 ± 0.63 for the second.

LYASASADHSRQRREGTPVL and LYAYDWLHEGNSSHKSDLVM are within error of each other in amyloid nucleation score: -0.54 ± 0.59 for the first, -0.791 ± 0.77 for the second.

LYCTLLKDSVSSLAVTYMSY and LYCWVFSLSSMESNWLGQHT are within error of each other in amyloid nucleation score: -0.071 ± 0.28 for the first, -0.012 ± 0.29 for the second.

LYDRCYGIRSSAIEGEEYKR and LYESYDMVEKQDRTWSKGSS are within error of each other in amyloid nucleation score: 0.806 ± 0.97 for the first, 0.281 ± 0.65 for the second.

LYFEIYRVIIFKDAFVASMR and LYHRSSLGMVSVVGDSMSDT are within error of each other in amyloid nucleation score: -0.63 ± 0.64 for the first, 0.596 ± 1.2 for the second.

First: LYKLTEFQAYKVIRPSACCV
Second: LYMYSLSFLMGGNANHRLGM
The amyloid nucleation score of the first is lower: -1.13 ± 2.4 for the first, 1.98 ± 0.16 for the second.

First: LYRCYESG
Second: LYSKLSALEFMQLAIQSHLD
The amyloid nucleation score of the first is lower: -0.378 ± 0.27 for the first, 1.96 ± 0.15 for the second.

LYSSLSYTKFMCAG and LYSVISPLSEDTYDCLSVPY are within error of each other in amyloid nucleation score: -0.51 ± 0.81 for the first, 0.297 ± 0.79 for the second.

First: LYSVRLRSVSK
Second: LYVEYKRAMCVMGVSLWVN
The amyloid nucleation score of the first is lower: -0.376 ± 0.25 for the first, 0.224 ± 0.19 for the second.

First: LYVLYAIRFLSFCSFWRYLI
Second: LYVMRKSDMMLDFRNAANVG
The amyloid nucleation score of the first is lower: -1.15 ± 0.51 for the first, -0.142 ± 0.23 for the second.

Going from LYYCSFRYMIKTRNLNVTFL to LYYFCLAINFSLGEGTAFVQ, the amyloid nucleation score falls from 6.4 ± 0.084 to -0.133 ± 0.84.

MADEWLCQKCGSRVT and MAFLYFMFILFHARCLIRLP are within error of each other in amyloid nucleation score: -0.207 ± 0.59 for the first, -0.177 ± 0.65 for the second.

MAGPYLVERRSMWASNARAE and MARPLRIHYNYSGSNDLRVR are within error of each other in amyloid nucleation score: -1.07 ± 1.4 for the first, -0.444 ± 0.4 for the second.

Compared with MAVLGALNRSGNMGVGLFYN, MCDDHWFPAIYKRLVSSNKQ is higher in amyloid nucleation score: -0.647 ± 0.4 for the first, 1.87 ± 0.57 for the second.

MCDIFAMLLIYQFDGKGTV and MCGNDWVYGDWIRSEIHGSS are within error of each other in amyloid nucleation score: 0.151 ± 0.17 for the first, -0.403 ± 0.59 for the second.

Compared with MCINIKKNMFR, MCKYVMRVLHIVAG is lower in amyloid nucleation score: 4.74 ± 0.048 for the first, 0.699 ± 0.42 for the second.

MCREYVFDNSPVT and MCSKWDFQVLSHTDSWVWV are within error of each other in amyloid nucleation score: -0.89 ± 1.2 for the first, -0.67 ± 0.5 for the second.

MDAFPEFLGVVFHSDDFGVP and MDKCIVSGVVESIFTGGAVI are within error of each other in amyloid nucleation score: -0.209 ± 0.39 for the first, -0.361 ± 0.75 for the second.

MDTFSIMTYLAWQSNELLLI and MDVGIFMIMTVTRWKGCSVI are within error of each other in amyloid nucleation score: 1.22 ± 0.23 for the first, 0.565 ± 0.48 for the second.

Going from MEMLGGNRL to MFDGEIFSYFNCTIV, the amyloid nucleation score rises from 1.23 ± 0.36 to 5.67 ± 0.051.

MFEFKKPD and MFISIGLPPQRRQDSHGWGG are within error of each other in amyloid nucleation score: -0.015 ± 0.73 for the first, 0.532 ± 0.37 for the second.

Going from MFMHELHMVDP to MFVRPRESAEHMLGFRVYSG, the amyloid nucleation score rises from -0.873 ± 0.77 to 0.452 ± 0.37.

MGDFND and MGGSCTSEQYCDWANYGDVL are within error of each other in amyloid nucleation score: -1.08 ± 1.4 for the first, 0.125 ± 1.4 for the second.

MGGTLRNRRGTKVRSELGGD and MGSVVHRKVEVHGRFKCGAT are within error of each other in amyloid nucleation score: -0.817 ± 1.7 for the first, 0.477 ± 0.93 for the second.

Compared with MHGISQPWHKLTMTGIRLAW, MHRGALSTMQHLHEISLLSC is higher in amyloid nucleation score: -0.463 ± 0.51 for the first, 0.886 ± 0.52 for the second.

MIAHLAPINRDAEYFINAIC and MIKSKM are within error of each other in amyloid nucleation score: -0.236 ± 0.27 for the first, -0.154 ± 0.61 for the second.

Compared with MIKSPTVKGFRMLCSVRGRD, MIVRSVILNDCWAGGACLHF is higher in amyloid nucleation score: -0.284 ± 0.44 for the first, 6.936 ± 0.047 for the second.

Compared with MKCYVFLKNWMWLVDYLDSI, MLACDVISPFCYVNWKRLCR is higher in amyloid nucleation score: -0.991 ± 2.4 for the first, 2.43 ± 0.15 for the second.

MLFRYRSPHTVWLIRLCMKQ and MLGCFISFTIKLLG are within error of each other in amyloid nucleation score: 0.839 ± 0.56 for the first, 1.39 ± 0.11 for the second.

Compared with MLGFYKSWCFNFSNMNVH, MLRAGY is lower in amyloid nucleation score: 0.979 ± 0.57 for the first, -0.292 ± 0.63 for the second.

MLTQPAEAKEARVSFCSLYM and MLTWCPTSEKVVLLFRSQRG are within error of each other in amyloid nucleation score: 1.01 ± 0.53 for the first, -0.383 ± 1.7 for the second.

Going from MLVAFAYFFGSHVRHWGFVW to MLWRYKRCNFARMFNLRVYV, the amyloid nucleation score falls from 0.224 ± 0.33 to -0.822 ± 0.65.

Compared with MLYFRVGVSFGLFVDNFVGF, MLYKIRDQIYIRHGSFEG is lower in amyloid nucleation score: 2.12 ± 0.13 for the first, 0.224 ± 0.28 for the second.

Compared with MLYPNNKSVVLVVMELRPNA, MMFLTNCCFMVLNCYTCVRY is higher in amyloid nucleation score: 0.648 ± 0.52 for the first, 3.53 ± 0.066 for the second.

MMSEYSYESFHMLII and MMSFVEKPQGESSSNEWGVN are within error of each other in amyloid nucleation score: -2.05 ± 1.4 for the first, -0.777 ± 2.4 for the second.

Going from MMVRGMW to MNCVLIVVPRMTLGNYRSSW, the amyloid nucleation score rises from 1.34 ± 0.35 to 5.21 ± 0.053.

MNVTCDGRMGIQVDPVRYNR and MQFLVVLCQCQFLNRVRGCA are within error of each other in amyloid nucleation score: -0.122 ± 1.4 for the first, 1.5 ± 0.35 for the second.

MQKYPIRGRR and MQRLLYACVHYRESAQVSTL are within error of each other in amyloid nucleation score: 1.64 ± 0.23 for the first, 1.93 ± 0.37 for the second.

MQTVNFVFTRLIFISDFTIQ and MRFSPVPCLNF are within error of each other in amyloid nucleation score: 0.688 ± 0.26 for the first, 0.353 ± 0.43 for the second.

In the case of LVLIAA, the amyloid nucleation score is reported as “inactive”.
For LWMHAGSGRIKLETGCGAKC, the amyloid nucleation score was “inactive”.
For LYLMGVRVMGNSICTLVRRL, the amyloid nucleation score was “inactive”.
In the case of MFVFFSTMSIR, the amyloid nucleation score is reported as “inactive”.
For MLFCVTRSVFSENCSLSLCT, the amyloid nucleation score was “inactive”.
With MRFGLRYKALALRVFVEMTA the amyloid nucleation score was “inactive”.
